In US7501552 (GENPHARM INTERNATIONAL, dated 2009):

Assays:
Test in all cases: flow cytometry on peripheral blood lymphocytes
[1] = molecular target: T1, rhesus monkey CD4 on lymphocytes (rhesus monkey, UniProt P16003 26-458)
T1 construct: whole, on cells; also called rhesus CD4 cells
Method: (§1) It is further desirable for some purposes that the animal be a non-human primate that expresses CD4 comprising a cross-reactive epitope with human CD4 such that it is recognized by the monoclonal antibody. […] Peripheral blood lymphocytes were isolated from whole blood of chimpanzee, rhesus, and cynomolgus monkeys. […] The stained cells were then analyzed by flow cytometry to determine if each of the human monoclonal antibodies bound to endogenous CD4 on the surface of lymphocytes from each of these three non-human primates.

[2] = molecular target: T2, cynomolgus monkey CD4 on lymphocytes (cynomolgus monkey, UniProt P79185 26-458)
T2 construct: whole, on cells; also called cynomolgus CD4 cells
Method: as §1

[3] = molecular target: T3, chimpanzee CD4 on lymphocytes (chimpanzee, UniProt P16004 26-458)
T3 construct: whole, on cells; also called chimpanzee CD4 cells
Method: as §1

Measured: binding result

T1 sequence (P16003 26-458): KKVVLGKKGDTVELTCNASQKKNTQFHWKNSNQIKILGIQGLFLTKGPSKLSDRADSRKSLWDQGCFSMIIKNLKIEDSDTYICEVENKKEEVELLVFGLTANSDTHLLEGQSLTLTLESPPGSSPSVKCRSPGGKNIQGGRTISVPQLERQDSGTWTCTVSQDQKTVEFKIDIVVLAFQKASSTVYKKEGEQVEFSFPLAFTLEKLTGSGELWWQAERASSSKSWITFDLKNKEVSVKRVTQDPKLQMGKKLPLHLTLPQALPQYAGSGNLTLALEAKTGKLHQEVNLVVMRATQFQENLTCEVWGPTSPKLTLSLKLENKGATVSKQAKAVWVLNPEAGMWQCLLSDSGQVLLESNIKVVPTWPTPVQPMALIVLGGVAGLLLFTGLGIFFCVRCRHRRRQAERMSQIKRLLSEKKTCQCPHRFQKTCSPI
T2 sequence (P79185 26-458): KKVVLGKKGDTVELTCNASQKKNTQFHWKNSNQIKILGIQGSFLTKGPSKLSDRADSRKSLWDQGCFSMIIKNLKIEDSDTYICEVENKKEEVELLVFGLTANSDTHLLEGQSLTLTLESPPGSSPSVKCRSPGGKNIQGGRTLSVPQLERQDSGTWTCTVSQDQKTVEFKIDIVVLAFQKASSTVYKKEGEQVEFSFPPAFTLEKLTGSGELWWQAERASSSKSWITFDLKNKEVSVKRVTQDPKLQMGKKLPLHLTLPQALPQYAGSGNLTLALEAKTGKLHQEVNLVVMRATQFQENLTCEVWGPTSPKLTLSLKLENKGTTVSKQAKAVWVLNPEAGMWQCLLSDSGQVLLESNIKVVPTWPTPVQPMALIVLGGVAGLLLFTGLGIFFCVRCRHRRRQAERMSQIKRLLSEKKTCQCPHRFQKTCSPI
T3 sequence (P16004 26-458): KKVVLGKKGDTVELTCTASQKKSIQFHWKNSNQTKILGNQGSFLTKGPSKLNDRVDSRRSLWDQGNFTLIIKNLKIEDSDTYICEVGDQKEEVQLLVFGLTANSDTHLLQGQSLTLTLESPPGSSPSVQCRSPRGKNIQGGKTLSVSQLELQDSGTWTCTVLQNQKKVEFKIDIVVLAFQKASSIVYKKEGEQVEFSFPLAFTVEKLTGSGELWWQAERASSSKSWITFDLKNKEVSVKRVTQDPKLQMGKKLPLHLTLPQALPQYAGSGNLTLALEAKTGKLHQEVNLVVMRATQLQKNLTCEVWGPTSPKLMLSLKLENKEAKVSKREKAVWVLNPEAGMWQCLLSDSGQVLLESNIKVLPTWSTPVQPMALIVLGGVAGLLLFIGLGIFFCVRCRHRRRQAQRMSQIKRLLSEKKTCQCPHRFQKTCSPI

B1: 4D1 (antibody, V domains shown)
VH: EVQLVQSGAEVKKPGESLKISCKGSGYSFTGYWIGWVRQMPGKGLEWMGIIYPGDSDTTYSPSFQGQVTISADKSISTAYLQWSSLKASDTAMYYCARDQLGLFDYWGQGTLVTVSS
VL: DIQMTQSPSSLSASVGDRVTITCRASQGISSWLAWYQQKPEKAPKSLIYSASSLQSGVPSRFSGSGSGTDFTLTISSLQPEDFATYYCQQYDSYPYTFGQGTKLEIK
notes: human IgG1 kappa from hybridoma; h.c; VH5-51, DHQ52, JH4; VkL15, Jk2; also called 4D1.4
binds: all assays above
